Results from PMC4221134 (Advances in biological regulation, 2013).

B1: MST1 SARAHmyc (domain or fragment)
chain: DYEFLKSWTVEDLQKRLLALDPMMEQEIEEIRQKYQSKRQPILDAIEAKKRRQQNF
B2: S-RASSF5 SARAH (domain or fragment)
chain: GEVEWDAFSIPELQNFLTILEKEEQDKIQQVQKKYDKFRQKLEEALRESQGKPG

Biological target: the molecule itself
Test: native MS

Row | Protein | binding result
1 | B1 | binds
2 | B2 | binds
